Reference: publication PMC11494503 (2024)

Target: T1, cyclo-CLLFCL (head-to-tail cyclic peptide)
T1 chain: CLLFCL
Assay: microscale thermophoresis

B1: HIF-1α PAS-B (protein)
chain: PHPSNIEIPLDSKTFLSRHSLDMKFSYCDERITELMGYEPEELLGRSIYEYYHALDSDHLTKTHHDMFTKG
With B1 the Kd was 470 nM.
